Experiment [1] concerns the target T1, human alpha4beta7 receptor on RPMI8866 cells (human, UniProt P13612 34-1032; P26010 20-798).
T1 construct: whole, on cells; also called alpha4beta7 on RPMI8866
In words: cell adhesion inhibition, RPMI8866 cells on coated 7dVCAM-1, Exp 1. As for the experimental part:
(§1) RPMI8866/MAdCAM-1-Ig Cell Adhesion: RPMI8866 cells express alpha4beta7 on their surface (Roswell Park Memorial Institute, Buffalo, N.Y.). Humanized Fib504 variants (hu504 variants) were contacted with a mixture of RMPI8866 cells and MAdCAM fused to IgG coated on a solid support. […] After blocking the plates with 200 ul/well of 5 mg/ml BSA for one hour at room temperature, 50 μl of humanized Fib504 variants in assay media (RPMI 1640 media, Hyclone®, Logan Utah, USA, supplemented with 5 mg/mL BSA) were added to each well and 150,000 BCECF-labeled cells (BCECF, Molecular Probes, Eugene, Oreg.) in 50 μl of assay media were added to each well and incubated for 15 minutes at 37° C. The wells were washed two times with 150 μl of assay media to remove unbound cells. The bound cells were solubilized with 100 μl of 0.1% SDS in 50 mM Tris/HCl pH7.5. The amount of fluorescence released from lysed cells was measured by SPECTRAmax GEMINI™ (Molecular Devices, Sunnyvale, Calif.) at 485 nm excitation 530 nm emission wavelengths. The fluorescence values were analyzed as a function of the concentrations of the humanized Fib504 variants added in each assay, using a four-parameter nonlinear least squares fit, to obtain the IC₅₀ values of each humanized Fib504 variant in the assay. IC₅₀ and IC₉₀ values were estimated from the four-parameter fit. FIG. 14 is an exemplary plot of the results. The IC₉₀ and IC₅₀ values for each of the variants tested are shown below in Table 4.
(§2) RPMI8866/7dVCAM-1 Cell Adhesion: The RPMI8866/7dVCAM-1 assay is similar format to the RPMI8866/MAdCAM-1-Ig except that 7dVCAM-1 (ADP5, R&D Systems, Minneapolis, Minn.) was used at 2 ug/ml to coat plates. The results were analyzed as described above for the MAdCAM binding experiments. The IC₅₀ values for each of the variants tested are shown below in Table 5.

The target of experiment [2] is T1, human alpha4beta7 receptor on RPMI8866 …. In words: cell adhesion inhibition, RPMI8866 cells on coated 7dVCAM-1, Exp 2. How it is done:
as §1, §2

Experiment [3] shares this target. Nature of the experiment: cell adhesion inhibition, RPMI8866 cells on coated MAdCAM-1-Ig, Exp 1. As for the experimental part: as §1
Experiment [4] shares this target. In words: cell adhesion inhibition, RPMI8866 cells on coated MAdCAM-1-Ig, Exp 2. How it is done: as §1
For experiment [5], the target named is T2, alpha4beta7 on 38C13 alpha4+ murine lymphoma cells transfected with integrin beta7 (38C13beta7 cells) (murine, UniProt Q00651 41-1039; P26011 20-806).
T2 construct: whole, on cells; also called 38C13-beta7 expressing cells; murine beta7-containing receptor
Nature of the experiment: cell adhesion inhibition, 38C13beta7 cells on coated muVCAM-1-Ig, experiment 1 of 2. How it is done: as §1
(§3) 38C13beta7/muVCAM-1-Ig Cell Adhesion Assay: The 38C13beta7/muVCAM-1-Ig assay was performed according to the murine MAdCAM-1-Ig/RPMI8866 cell binding assay above, except that muVCAM-1-Ig (Genentech, Inc.) was used at 2 μg/ml to coat plates. (IC₅₀ and IC₉₀ values for 2 experiments are shown).

In experiment [6] the target is T2, alpha4beta7 on 38C13 alpha4+ murine …. Nature of the experiment: cell adhesion inhibition, 38C13beta7 cells on coated muVCAM-1-Ig, experiment 2 of 2. How it is done:
as §1, §3

Experiment [7] shares this target. In words: cell adhesion inhibition, 38C13beta7 cells on coated muMAdCAM-1-Ig, experiment 1 of 2. As for the experimental part: as §1
(§4) 38C13beta7/muMAdCAM-1-Ig Cell Adhesion Assay: The 38C13beta7/muMAdCAM-1-Ig assay was similar format to the RPMI8866/MAdCAM-1-Ig except that muMAdCAM-1-Ig (Genentech, Inc.) was used at 2 μg/ml to coat plates. 38C13 alpha4+ murine lymphoma cells (Crowe, D. T. et al., J. Biol. Chem. 269:14411-14418 (1994)) were transfected with DNA encoding integrin beta7 such that alpha4beta7 was expressed on the cell surface. The ability of the antibodies variants to disrupt interaction between the cell membrane associated alpha4beta7 and MAdCAM was performed as above.

Experiment [8] has the same target. Nature of the experiment: cell adhesion inhibition, 38C13beta7 cells on coated muMAdCAM-1-Ig, experiment 2 of 2. How it is done: as §1, §4
Experiment [9] has as its target T3, alphaEbeta7 on alphaEbeta7-transfected 293 cells (human, UniProt P38570 19-1179; P26010 20-798).
T3 construct: whole, on cells; also called alphaEbeta7 293 cells
In words: cell adhesion inhibition, alphaEbeta7 293 cells on coated huE-Cadherin, experiment 1 of 3. How it is done:
(§5) After blocking the plates with 200 ul/well of 5 mg/ml BSA for one hour at room temperature, 50 μl of humanized Fib504 variants in assay media (RPMI 1640 media, Hyclone®, Logan Utah, USA, supplemented with 5 mg/mL BSA) were added to each well and 150,000 BCECF-labeled cells (BCECF, Molecular Probes, Eugene, Oreg.) in 50 μl of assay media were added to each well and incubated for 15 minutes at 37° C. The wells were washed two times with 150 μl of assay media to remove unbound cells. The bound cells were solubilized with 100 μl of 0.1% SDS in 50 mM Tris/HCl pH7.5. The amount of fluorescence released from lysed cells was measured by SPECTRAmax GEMINI™ (Molecular Devices, Sunnyvale, Calif.) at 485 nm excitation 530 nm emission wavelengths. The fluorescence values were analyzed as a function of the concentrations of the humanized Fib504 variants added in each assay, using a four-parameter nonlinear least squares fit, to obtain the IC₅₀ values of each humanized Fib504 variant in the assay. IC₅₀ and IC₉₀ values were estimated from the four-parameter fit. FIG. 14 is an exemplary plot of the results. The IC₉₀ and IC₅₀ values for each of the variants tested are shown below in Table 4.
(§6) The assay format is similar to the RPMI8866/MAdCAM-1-Ig assay except that the huE-Cadherin (648-EC, R&D Systems, Minneapolis, Minn.) was used at 2 μg/ml to coat the plates. Plates were then blocked with 5 mg/ml BSA as mentioned above and 50 μl of FIB504 variants in assay media (F-12:DMEM (50:50) supplemented with 5 mg/ml BSA) were add to each well and 110,000 BCECF labeled cells in 50 ul of assay media were added to each well and incubated for 15 minutes at 37° C. The wells were washed two times with 150 μl of assay media and the amount of fluorescence released by lysed cells was measured and analyzed as described above.

Experiment [10] has as its target T3, alphaEbeta7 on alphaEbeta7-transfected …. In words: cell adhesion inhibition, alphaEbeta7 293 cells on coated huE-Cadherin, experiment 2 of 3. How it is done: as §5, §6
Experiment [11] shares this target. Nature of the experiment: cell adhesion inhibition, alphaEbeta7 293 cells on coated huE-Cadherin, experiment 3 of 3. How it is done:
as §5, §6

T3 sequence (P38570 19-1179, chain 1 of 2): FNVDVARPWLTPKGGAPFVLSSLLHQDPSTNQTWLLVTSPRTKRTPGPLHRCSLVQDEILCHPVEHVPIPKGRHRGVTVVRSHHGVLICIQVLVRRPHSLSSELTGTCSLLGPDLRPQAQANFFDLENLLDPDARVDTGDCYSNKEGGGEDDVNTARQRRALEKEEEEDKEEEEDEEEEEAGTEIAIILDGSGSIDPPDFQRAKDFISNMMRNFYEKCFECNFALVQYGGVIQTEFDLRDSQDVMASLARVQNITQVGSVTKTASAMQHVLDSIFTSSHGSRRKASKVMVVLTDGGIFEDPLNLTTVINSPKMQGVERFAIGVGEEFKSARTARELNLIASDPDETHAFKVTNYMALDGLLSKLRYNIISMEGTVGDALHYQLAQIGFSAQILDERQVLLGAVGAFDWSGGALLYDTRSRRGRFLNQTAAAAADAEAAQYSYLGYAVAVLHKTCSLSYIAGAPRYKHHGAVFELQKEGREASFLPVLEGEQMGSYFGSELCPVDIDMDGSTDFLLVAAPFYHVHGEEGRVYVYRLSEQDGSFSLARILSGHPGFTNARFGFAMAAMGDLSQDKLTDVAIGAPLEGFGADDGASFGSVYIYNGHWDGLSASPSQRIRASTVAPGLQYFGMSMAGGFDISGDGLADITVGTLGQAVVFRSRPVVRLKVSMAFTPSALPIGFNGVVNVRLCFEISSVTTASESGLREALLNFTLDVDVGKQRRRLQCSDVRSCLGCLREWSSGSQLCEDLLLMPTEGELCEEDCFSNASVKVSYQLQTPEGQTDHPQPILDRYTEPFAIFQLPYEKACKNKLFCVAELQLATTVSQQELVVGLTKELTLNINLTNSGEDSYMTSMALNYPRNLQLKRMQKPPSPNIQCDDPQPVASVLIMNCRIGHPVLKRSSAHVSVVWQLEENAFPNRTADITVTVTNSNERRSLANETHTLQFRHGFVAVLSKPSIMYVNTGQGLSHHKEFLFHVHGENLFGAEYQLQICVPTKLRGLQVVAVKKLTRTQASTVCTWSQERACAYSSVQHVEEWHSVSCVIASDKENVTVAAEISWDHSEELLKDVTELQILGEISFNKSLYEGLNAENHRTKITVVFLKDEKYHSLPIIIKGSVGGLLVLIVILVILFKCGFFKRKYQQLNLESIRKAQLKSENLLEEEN
T3 sequence (P26010 20-798, chain 2 of 2): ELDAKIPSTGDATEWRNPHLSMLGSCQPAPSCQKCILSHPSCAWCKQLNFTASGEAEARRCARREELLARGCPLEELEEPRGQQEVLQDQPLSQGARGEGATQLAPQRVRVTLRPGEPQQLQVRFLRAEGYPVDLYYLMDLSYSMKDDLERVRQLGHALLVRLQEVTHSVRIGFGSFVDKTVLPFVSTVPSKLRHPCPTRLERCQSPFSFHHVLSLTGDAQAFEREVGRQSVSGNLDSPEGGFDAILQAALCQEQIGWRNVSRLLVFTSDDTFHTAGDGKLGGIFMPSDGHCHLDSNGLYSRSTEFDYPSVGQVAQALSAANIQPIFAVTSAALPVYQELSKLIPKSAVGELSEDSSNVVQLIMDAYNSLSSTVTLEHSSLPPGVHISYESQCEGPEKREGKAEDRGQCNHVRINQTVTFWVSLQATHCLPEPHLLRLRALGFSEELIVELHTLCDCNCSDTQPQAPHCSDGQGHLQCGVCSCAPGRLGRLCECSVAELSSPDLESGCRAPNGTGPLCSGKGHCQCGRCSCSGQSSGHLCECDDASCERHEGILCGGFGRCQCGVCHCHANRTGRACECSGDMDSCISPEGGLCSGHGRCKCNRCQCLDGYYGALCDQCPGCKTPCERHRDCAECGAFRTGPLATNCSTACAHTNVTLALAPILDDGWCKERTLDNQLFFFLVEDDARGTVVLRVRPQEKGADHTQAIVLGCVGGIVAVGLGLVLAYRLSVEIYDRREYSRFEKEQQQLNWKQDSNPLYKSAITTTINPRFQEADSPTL
T1 sequence (P13612 34-1032, chain 1 of 2): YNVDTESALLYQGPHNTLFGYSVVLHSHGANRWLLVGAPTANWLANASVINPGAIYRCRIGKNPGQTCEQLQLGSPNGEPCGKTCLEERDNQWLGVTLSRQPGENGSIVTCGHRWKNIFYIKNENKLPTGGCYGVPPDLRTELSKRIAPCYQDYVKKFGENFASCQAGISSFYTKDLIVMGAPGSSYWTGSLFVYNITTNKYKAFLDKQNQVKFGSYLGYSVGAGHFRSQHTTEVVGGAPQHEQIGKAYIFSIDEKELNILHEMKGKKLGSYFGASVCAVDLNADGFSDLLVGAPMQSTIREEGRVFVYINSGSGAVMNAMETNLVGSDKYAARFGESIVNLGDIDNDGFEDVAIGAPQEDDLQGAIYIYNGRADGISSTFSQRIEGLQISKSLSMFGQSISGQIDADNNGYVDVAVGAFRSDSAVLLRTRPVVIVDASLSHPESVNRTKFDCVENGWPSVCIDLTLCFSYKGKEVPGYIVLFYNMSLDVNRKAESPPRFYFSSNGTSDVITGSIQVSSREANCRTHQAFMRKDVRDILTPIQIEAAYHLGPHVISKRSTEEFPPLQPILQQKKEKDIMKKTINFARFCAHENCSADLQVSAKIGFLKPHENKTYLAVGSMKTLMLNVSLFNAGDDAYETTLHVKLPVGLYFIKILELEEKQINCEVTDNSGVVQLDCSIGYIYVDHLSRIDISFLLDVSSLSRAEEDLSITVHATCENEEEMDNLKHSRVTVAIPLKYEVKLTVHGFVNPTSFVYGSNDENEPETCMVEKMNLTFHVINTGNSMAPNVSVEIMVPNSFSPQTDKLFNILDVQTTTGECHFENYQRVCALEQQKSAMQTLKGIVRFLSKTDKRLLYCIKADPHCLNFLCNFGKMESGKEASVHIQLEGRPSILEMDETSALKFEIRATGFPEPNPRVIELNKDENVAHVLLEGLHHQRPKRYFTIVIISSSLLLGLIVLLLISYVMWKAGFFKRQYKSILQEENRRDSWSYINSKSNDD
T1 sequence (P26010 20-798, chain 2 of 2): as the sequence (P26010 20-798, chain 2 of 2) above
T2 sequence (Q00651 41-1039, chain 1 of 2): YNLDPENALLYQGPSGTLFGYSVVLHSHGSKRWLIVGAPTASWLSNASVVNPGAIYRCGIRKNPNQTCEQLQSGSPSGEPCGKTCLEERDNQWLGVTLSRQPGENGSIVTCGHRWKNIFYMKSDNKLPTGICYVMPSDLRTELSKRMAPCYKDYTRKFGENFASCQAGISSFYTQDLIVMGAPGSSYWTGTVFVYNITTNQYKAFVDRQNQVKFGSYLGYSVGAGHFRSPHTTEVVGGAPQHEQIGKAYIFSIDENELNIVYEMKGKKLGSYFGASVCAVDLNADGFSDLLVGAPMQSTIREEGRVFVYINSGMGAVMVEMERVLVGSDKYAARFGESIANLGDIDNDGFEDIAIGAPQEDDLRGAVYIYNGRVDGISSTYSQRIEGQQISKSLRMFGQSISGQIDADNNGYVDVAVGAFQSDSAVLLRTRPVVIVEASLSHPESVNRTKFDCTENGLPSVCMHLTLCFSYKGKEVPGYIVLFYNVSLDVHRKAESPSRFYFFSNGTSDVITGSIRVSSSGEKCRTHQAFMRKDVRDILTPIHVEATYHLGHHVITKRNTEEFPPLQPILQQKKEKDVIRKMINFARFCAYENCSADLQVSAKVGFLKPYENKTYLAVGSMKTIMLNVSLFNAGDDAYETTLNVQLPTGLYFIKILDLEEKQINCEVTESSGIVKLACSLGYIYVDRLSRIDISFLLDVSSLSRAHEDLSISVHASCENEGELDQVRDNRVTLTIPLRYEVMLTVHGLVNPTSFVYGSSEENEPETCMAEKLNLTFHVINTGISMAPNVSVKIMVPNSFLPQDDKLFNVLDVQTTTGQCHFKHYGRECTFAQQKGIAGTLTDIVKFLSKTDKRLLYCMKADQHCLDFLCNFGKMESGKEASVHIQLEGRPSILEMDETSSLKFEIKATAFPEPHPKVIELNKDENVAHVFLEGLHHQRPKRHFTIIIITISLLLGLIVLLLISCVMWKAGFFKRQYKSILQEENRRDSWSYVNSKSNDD
T2 sequence (P26011 20-806, chain 2 of 2): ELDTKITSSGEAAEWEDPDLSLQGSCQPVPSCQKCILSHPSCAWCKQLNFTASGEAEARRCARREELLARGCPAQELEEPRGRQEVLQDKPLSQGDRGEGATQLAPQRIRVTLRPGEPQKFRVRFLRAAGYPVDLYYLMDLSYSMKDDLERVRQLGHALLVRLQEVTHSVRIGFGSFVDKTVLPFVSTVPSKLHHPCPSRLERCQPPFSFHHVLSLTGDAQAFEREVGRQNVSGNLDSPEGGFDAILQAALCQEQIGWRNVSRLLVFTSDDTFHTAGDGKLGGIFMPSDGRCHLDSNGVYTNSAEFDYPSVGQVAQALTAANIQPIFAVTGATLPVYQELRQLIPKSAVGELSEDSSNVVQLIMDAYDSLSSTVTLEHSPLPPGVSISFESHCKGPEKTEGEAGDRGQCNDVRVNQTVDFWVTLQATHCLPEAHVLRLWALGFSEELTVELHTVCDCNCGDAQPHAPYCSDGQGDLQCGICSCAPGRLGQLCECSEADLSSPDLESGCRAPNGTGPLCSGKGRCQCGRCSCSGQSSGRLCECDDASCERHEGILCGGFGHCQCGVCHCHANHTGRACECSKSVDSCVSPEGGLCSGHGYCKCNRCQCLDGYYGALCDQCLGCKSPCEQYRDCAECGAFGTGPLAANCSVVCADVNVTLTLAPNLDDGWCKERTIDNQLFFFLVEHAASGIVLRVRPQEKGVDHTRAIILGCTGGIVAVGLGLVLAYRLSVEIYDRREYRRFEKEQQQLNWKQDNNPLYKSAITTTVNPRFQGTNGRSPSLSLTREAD

B1: Rat Fib504 (antibody FIB504.64 produced by hybridoma ATCC HB-293) (antibody, V domains shown)
VH: EVQLQESGPGLVKPSQSLSLTCSVTGFFITNNYWGWIRKFPGNKMEWMGYISYSGSTSYNPSLKSRISITRDTSKNQFFLQLNSVTTEDTATYYCAMTGSSGYFDFWGPGTMVTVSS
VL: DVVMTQSPATLSVTPGERISLSCRASESVDTYLHWYQQKPNESPRLLIKYASQSISGIPSRFSGSGSGTDFTLSINGVELEDLSIYYCQQGNSLPNTFGAGTKLELKR
notes: Whole rat antibody in the cell adhesion assays; also called rat anti-mouse beta7 antibody
Consider B1, for which the concentration for half-maximal inhibition (IC50) in [1] is 0.107 nM; in experiment [2], 0.193 nM; in [3], 0.098 nM; in [4], 0.197 nM; in experiment [5], 0.845 nM; in experiment [6] it was 0.447 nM. The IC50 turned out to be 0.682 nM in [7]; 0.306 nM in experiment [8]; 2.05 nM in experiment [9]; 7.89 nM in experiment [10]; 4.19 nM in [11]. Further, the IC90 is 0.396 nM in experiment [1]; 0.58 nM in experiment [2]; 0.483 nM in experiment [3]; 0.703 nM in [4]; 2.9 nM in [5]; 2.3 nM in experiment [6]. In addition, the IC90 in experiment [7] is 2.87 nM; in experiment [8], 1.51 nM; in experiment [9], 8.8 nM; in experiment [10] it was 24.5 nM; in [11], 9.95 nM.

B2: Variant hu504.32, IgG (antibody, V domains shown)
VH: EVQLVESGGGLVQPGGSLRLSCAASGFFITNNYWGWVRQAPGKGLEWVGYISYSGSTSYNPSLKSRFTISRDTSKNTFYLQMNSLRAEDTAVYYCAMTGSSGYFDFWGQGTLVTVSS
VL: DIQMTQSPSSLSASVGDRVTITCRASESVDDLLHWYQQKPGKAPKLLIKYASQSISGVPSRFSGSGSGTDFTLTISSLQPEDFATYYCQQGNSLPNTFGQGTKVEIKR
notes: methionine at heavy chain position 94; also called hu504.32M; 504.32M
On to B2, for which the IC50 in experiment [5] came out at 0.562 nM; in experiment [6] it was 0.33 nM; in experiment [7], 0.718 nM; in experiment [8], 0.458 nM; in experiment [9], 1.81 nM; in experiment [10], 6.99 nM. Moreover, in experiment [11], the IC50 was found to be 3.47 nM. The IC90 in [5] was determined as 2 nM; in experiment [6] it was 1.84 nM; in experiment [7], 4.08 nM; in [8], 1.51 nM; in experiment [9] it was 8.8 nM; in [10] it was 24.5 nM. Also, the 90% effect level in [11] (IC90) was put at 11.7 nM.

B3: Variant hu504.5, IgG (antibody, name in Kabat numbering, V domains shown)
VH: EVQLVESGGGLVQPGGSLRLSCAASGFFITNNYWGWVRQAPGKGLEWVGYISYSGSTSYNPSLKSRFTISRDTSKNTFYLQMNSLRAEDTAVYYCAMTGSSGYFDFWGQGTLVTVSS
VL: DIQMTQSPSSLSASVGDRVTITCRASESVDSLLHWYQQKPGKAPKLLIKYASQSISGVPSRFSGSGSGTDFTLTISSLQPEDFATYYCQQGNSLPNTFGQGTKVEIKR
Turning to B3, the IC50 in experiment [1] turned out to be 0.088 nM; in experiment [2] it was 0.27 nM; in experiment [3], 0.067 nM; in experiment [4], 0.248 nM; in experiment [5] it was 0.763 nM; in experiment [6] it was 0.407 nM. In addition, the half-maximal inhibitory concentration (IC50) is 0.859 nM in [7]; 0.466 nM in [8]; 2.13 nM in experiment [9]; 10.2 nM in [10]; 4.77 nM in experiment [11]. Also, the IC90 is 0.396 nM in [1]; 0.726 nM in [2]; 0.361 nM in experiment [3]; 0.88 nM in [4]; 3.07 nM in experiment [5]; 2.3 nM in experiment [6]. For the same molecule, the IC90 in experiment [7] was 2.32 nM; in experiment [8], 2.61 nM; in experiment [9], 7.99 nM; in experiment [10], 28.7 nM; in [11], 10.2 nM.

The values are drawn from patent publication US20090226437A1 (Genentech, published 2009).
